This note sets out measurements from article PMC4660060, “The molecular architecture of the Dam1 kinetochore complex is defined by cross-linking based structural modelling” (Nature Communications, 2015).

The series concerns the molecule itself. Description: TIRF microscopy, tracer residence time; GFP-tagged and unlabelled versions of the same mutant Dam1 complex mixed 1:100 to 2 nM in all (20 pM tracer), on immobilised MTs; BRB80, 0.8 mg/ml kappa-casein, 50 mM KCl, oxygen scavengers; concentrations that support oligomeric rings.

B1: Dam1-GFP NP complex, mock-treated (Dam1p S257A, S265A, S292A, Ask1p S200A, Spc34p T199A) (complex, yeast)
chain 1: MDSASKEETLEKLDQEITVNLQKIDSNLSFCFHKITQDIIPHVATYSEICERIMDSTEWLGTMFQETGLVNLQANAAAPVGNAPVKSLVSNNVGIFPTSAEEASRQSQTDNGPNEADSAVHVNRDVHSMFNNDSIDDFHTANITSTGQILKLPDSSDEDTGSEAVPSREQTDLTGEGHGGADDEQDESTIQRQSRKRKIALLLQQQYGSSSSMVPSPIVPNKMRKQLAHEEHINNDGDNDDENSNNIESSPLKQGHHHPKGQADDNNEGPDEEESTKEVPKPGTIIHFSTNR
chain 2: MMASTSNDEEKLISTTDKYFIEQRNIVLQEINETMNSILNGLNGLNISLESSIAVGREFQSVSDLWKTLYDGLESLSDEAPIDEQPTLSQSKTK
chain 3: MDSIDEQIAIKRKELQSLQKITSLTDGLKIQLTELNEQIKEMGMNADSVAQLMNNWDSIINNISQASLGLLQYAEGDYEIGPWKDSKKKESEQSNETGLEAQENDKNDEDNDEDEDLVPLPETMVRIRVDGNE
chain 4: MEHNLSPLQQEVLDKYKQLSLDLKALDETIKELNYSQHRQQHSQQETVSPDEILQEMRDIEVKIGLVGTLLKGSVYSLILQRKQEQESLGSNSK
chain 5: MENPHEQVQANILSRIIGNVKRLNESVAILNQELVTINNRNKNLEIMGAICDNYHSSVQFNLEATNNKKPPL
chain 6: MSEDKAKLGTTRSATEYRLSIGSAPTSRRSSMGESSSLMKFADQEGLTSSVGEYNENTIQQLLLPKIRELSDSIITLDSNFTRLNFIHESLADLNESLGSLLYGIMSNSWCVEFSQAPHDIQDDLIAIKQLKSLEDEKNNLVMELSNMERGIKRKKDEQGENDLAKASQNKQFNQPLFPSSQVRKYRSYDNRDKRKPSKIGNNLQVENEEDYEDDTSSEASFVLNPTNIGMSKSSQGHVTKTTRLNNNTNSKLRRKAILHTIRNAIASGADLPIENDNVVNLGDLHPNNRIALGSGAARVVNGPVTKNRNSMFSGRAERKPTESRHSVAKKTEKKINTRPPFR
chain 7: MSEQSQLDDSTIDKLIPQIFNEMRSNLNNTTNKFPKSTGGGASDNISANSNSIRSFNSITTQSLLKESESLDKITAMIKNVTAALKNNLPVYVNQVHEVCKSTNSILDSWINIHSQAGYIHKLMSDQTYLKLINDRLHNENVNTNDEDGSTLHNVIALKKKEILDLRQKLENRKGEKDAAPAKPPNQGLNPRYGVQSGRRPVPSAGISNNGRVRKTHVPASKRPSGIPRVTNRWTKPTASSSRKMFR
chain 8: MNANKQRQYNQLAHELRELQTNLQETTKQLDIMSKQCNENLVGQLGKVHGSWLIGSYIYYMEQMLGKTQ
chain 9: MTDALEQSVLALEGTVSVLKDSVESLKCANEPSTNLASTMLQTKRVFRLVPEYDVERSKLDLIEEVEPLVRTLGDKLRKSMGRMQRELDTLQQTYELNDLRLKKNISMDDDDALNSPDMGQEYEGRDADDVVMMASSTNEELEELKKLKEKKKQLENKLEILKQK
chain 10: MGESLDRCIDDINRAVDSMSTLYFKPPGIFHNAILQGASNKASIRKDITRLIKDCNHDEAYLLFKVNPEKQSVSRRDGKEGVFDYVIKRDTDMKRNRRLGRPGEKPIIHVPKEVYLNKDRLDLNNKRRRTATTSGGGLNGFIFDTDLIGSSVISNSSSGTFKALSAVFKDDPQIQRLLYALENGSVLMEEESNNQRRKAIFVEDFPTDLILKVMAEVTDLWPLTEFKQDYDQLYHNYEQLSSKLRFIKKEVLLQDDRLKTMSQYHPSSSHDVAKIIRKEKDEIRRLEMEIANLQE
notes: GFP-tagged complex, detected by its GFP; In the tracer assay 20 pM of this complex met 2 nM of the same mutant complex without GFP; also called Dam1 NP mock; Dam1 NP; source: recombinant Dam1 complex (E. coli BL21 Rosetta, purified); mock-treated with GST-Ipl1 and GST-Sli15 (554-698), distilled water in place of ATP; copies: + + + + + + + + +
Turning to B1, the “fold increase of the average residence time on MTs against single molecules” value is over 5 fold.

B2: Dam1-GFP CP complex, phosphorylated by Ipl1 (Dam1p S20A, Ask1p S200A, Spc34p T199A; Dam1p C-terminal sites phosphorylated) (complex, yeast)
chain 1: MDSASKEETLEKLDQEITVNLQKIDSNLSFCFHKITQDIIPHVATYSEICERIMDSTEWLGTMFQETGLVNLQANAAAPVGNAPVKSLVSNNVGIFPTSAEEASRQSQTDNGPNEADSAVHVNRDVHSMFNNDSIDDFHTANITSTGQILKLPDSSDEDTGSEAVPSREQTDLTGEGHGGADDEQDESTIQRQSRKRKIALLLQQQYGSSSSMVPSPIVPNKMRKQLAHEEHINNDGDNDDENSNNIESSPLKQGHHHPKGQADDNNEGPDEEESTKEVPKPGTIIHFSTNR
chain 2: MMASTSNDEEKLISTTDKYFIEQRNIVLQEINETMNSILNGLNGLNISLESSIAVGREFQSVSDLWKTLYDGLESLSDEAPIDEQPTLSQSKTK
chain 3: MDSIDEQIAIKRKELQSLQKITSLTDGLKIQLTELNEQIKEMGMNADSVAQLMNNWDSIINNISQASLGLLQYAEGDYEIGPWKDSKKKESEQSNETGLEAQENDKNDEDNDEDEDLVPLPETMVRIRVDGNE
chain 4: MEHNLSPLQQEVLDKYKQLSLDLKALDETIKELNYSQHRQQHSQQETVSPDEILQEMRDIEVKIGLVGTLLKGSVYSLILQRKQEQESLGSNSK
chain 5: MENPHEQVQANILSRIIGNVKRLNESVAILNQELVTINNRNKNLEIMGAICDNYHSSVQFNLEATNNKKPPL
chain 6: MSEDKAKLGTTRSATEYRLAIGSAPTSRRSSMGESSSLMKFADQEGLTSSVGEYNENTIQQLLLPKIRELSDSIITLDSNFTRLNFIHESLADLNESLGSLLYGIMSNSWCVEFSQAPHDIQDDLIAIKQLKSLEDEKNNLVMELSNMERGIKRKKDEQGENDLAKASQNKQFNQPLFPSSQVRKYRSYDNRDKRKPSKIGNNLQVENEEDYEDDTSSEASFVLNPTNIGMSKSSQGHVTKTTRLNNNTNSKLRRKSILHTIRNSIASGADLPIENDNVVNLGDLHPNNRISLGSGAARVVNGPVTKNRNSMFSGRAERKPTESRHSVAKKTEKKINTRPPFR
chain 7: MSEQSQLDDSTIDKLIPQIFNEMRSNLNNTTNKFPKSTGGGASDNISANSNSIRSFNSITTQSLLKESESLDKITAMIKNVTAALKNNLPVYVNQVHEVCKSTNSILDSWINIHSQAGYIHKLMSDQTYLKLINDRLHNENVNTNDEDGSTLHNVIALKKKEILDLRQKLENRKGEKDAAPAKPPNQGLNPRYGVQSGRRPVPSAGISNNGRVRKTHVPASKRPSGIPRVTNRWTKPTASSSRKMFR
chain 8: MNANKQRQYNQLAHELRELQTNLQETTKQLDIMSKQCNENLVGQLGKVHGSWLIGSYIYYMEQMLGKTQ
chain 9: MTDALEQSVLALEGTVSVLKDSVESLKCANEPSTNLASTMLQTKRVFRLVPEYDVERSKLDLIEEVEPLVRTLGDKLRKSMGRMQRELDTLQQTYELNDLRLKKNISMDDDDALNSPDMGQEYEGRDADDVVMMASSTNEELEELKKLKEKKKQLENKLEILKQK
chain 10: MGESLDRCIDDINRAVDSMSTLYFKPPGIFHNAILQGASNKASIRKDITRLIKDCNHDEAYLLFKVNPEKQSVSRRDGKEGVFDYVIKRDTDMKRNRRLGRPGEKPIIHVPKEVYLNKDRLDLNNKRRRTATTSGGGLNGFIFDTDLIGSSVISNSSSGTFKALSAVFKDDPQIQRLLYALENGSVLMEEESNNQRRKAIFVEDFPTDLILKVMAEVTDLWPLTEFKQDYDQLYHNYEQLSSKLRFIKKEVLLQDDRLKTMSQYHPSSSHDVAKIIRKEKDEIRRLEMEIANLQE
modifications: phosphoserine at S257, S265 and S292 (by Ipl1 kinase, nearly stoichiometric)
notes: GFP-tagged complex, detected by its GFP; In the tracer assay 20 pM of this complex met 2 nM of the same phosphorylated mutant complex without GFP; also called Dam1 CP phos; Dam1 CP; source: recombinant Dam1 complex (E. coli BL21 Rosetta, purified); phosphorylated with GST-Ipl1, GST-Sli15 (554-698) and 10 mM ATP, 90 min, 30 °C; copies: + + + + + + + + +
Consider B2, for which the binding result is on record as “binds”.

B3: Dam1-GFP CP complex, mock-treated (Dam1p S20A, Ask1p S200A, Spc34p T199A) (complex, yeast)
chain 1: MDSASKEETLEKLDQEITVNLQKIDSNLSFCFHKITQDIIPHVATYSEICERIMDSTEWLGTMFQETGLVNLQANAAAPVGNAPVKSLVSNNVGIFPTSAEEASRQSQTDNGPNEADSAVHVNRDVHSMFNNDSIDDFHTANITSTGQILKLPDSSDEDTGSEAVPSREQTDLTGEGHGGADDEQDESTIQRQSRKRKIALLLQQQYGSSSSMVPSPIVPNKMRKQLAHEEHINNDGDNDDENSNNIESSPLKQGHHHPKGQADDNNEGPDEEESTKEVPKPGTIIHFSTNR
chain 2: MMASTSNDEEKLISTTDKYFIEQRNIVLQEINETMNSILNGLNGLNISLESSIAVGREFQSVSDLWKTLYDGLESLSDEAPIDEQPTLSQSKTK
chain 3: MDSIDEQIAIKRKELQSLQKITSLTDGLKIQLTELNEQIKEMGMNADSVAQLMNNWDSIINNISQASLGLLQYAEGDYEIGPWKDSKKKESEQSNETGLEAQENDKNDEDNDEDEDLVPLPETMVRIRVDGNE
chain 4: MEHNLSPLQQEVLDKYKQLSLDLKALDETIKELNYSQHRQQHSQQETVSPDEILQEMRDIEVKIGLVGTLLKGSVYSLILQRKQEQESLGSNSK
chain 5: MENPHEQVQANILSRIIGNVKRLNESVAILNQELVTINNRNKNLEIMGAICDNYHSSVQFNLEATNNKKPPL
chain 6: MSEDKAKLGTTRSATEYRLAIGSAPTSRRSSMGESSSLMKFADQEGLTSSVGEYNENTIQQLLLPKIRELSDSIITLDSNFTRLNFIHESLADLNESLGSLLYGIMSNSWCVEFSQAPHDIQDDLIAIKQLKSLEDEKNNLVMELSNMERGIKRKKDEQGENDLAKASQNKQFNQPLFPSSQVRKYRSYDNRDKRKPSKIGNNLQVENEEDYEDDTSSEASFVLNPTNIGMSKSSQGHVTKTTRLNNNTNSKLRRKSILHTIRNSIASGADLPIENDNVVNLGDLHPNNRISLGSGAARVVNGPVTKNRNSMFSGRAERKPTESRHSVAKKTEKKINTRPPFR
chain 7: MSEQSQLDDSTIDKLIPQIFNEMRSNLNNTTNKFPKSTGGGASDNISANSNSIRSFNSITTQSLLKESESLDKITAMIKNVTAALKNNLPVYVNQVHEVCKSTNSILDSWINIHSQAGYIHKLMSDQTYLKLINDRLHNENVNTNDEDGSTLHNVIALKKKEILDLRQKLENRKGEKDAAPAKPPNQGLNPRYGVQSGRRPVPSAGISNNGRVRKTHVPASKRPSGIPRVTNRWTKPTASSSRKMFR
chain 8: MNANKQRQYNQLAHELRELQTNLQETTKQLDIMSKQCNENLVGQLGKVHGSWLIGSYIYYMEQMLGKTQ
chain 9: MTDALEQSVLALEGTVSVLKDSVESLKCANEPSTNLASTMLQTKRVFRLVPEYDVERSKLDLIEEVEPLVRTLGDKLRKSMGRMQRELDTLQQTYELNDLRLKKNISMDDDDALNSPDMGQEYEGRDADDVVMMASSTNEELEELKKLKEKKKQLENKLEILKQK
chain 10: MGESLDRCIDDINRAVDSMSTLYFKPPGIFHNAILQGASNKASIRKDITRLIKDCNHDEAYLLFKVNPEKQSVSRRDGKEGVFDYVIKRDTDMKRNRRLGRPGEKPIIHVPKEVYLNKDRLDLNNKRRRTATTSGGGLNGFIFDTDLIGSSVISNSSSGTFKALSAVFKDDPQIQRLLYALENGSVLMEEESNNQRRKAIFVEDFPTDLILKVMAEVTDLWPLTEFKQDYDQLYHNYEQLSSKLRFIKKEVLLQDDRLKTMSQYHPSSSHDVAKIIRKEKDEIRRLEMEIANLQE
notes: GFP-tagged complex, detected by its GFP; In the tracer assay 20 pM of this complex met 2 nM of the same mutant complex without GFP; also called Dam1 CP mock; Dam1 CP; source: recombinant Dam1 complex (E. coli BL21 Rosetta, purified); mock-treated with GST-Ipl1 and GST-Sli15 (554-698), distilled water in place of ATP; copies: + + + + + + + + +
As to B3, the “fold increase of the average residence time on MTs against single molecules” value was over 5 fold.
